Data reported in the nanobody polyreactivity screen of Harvey et al. (2022).

test: yeast display, Sf9 membrane polyspecificity reagent, FACS + sequencing; frameworks hold sequencing errors
In short: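 Using colony PCR, genes from sorted yeast display clones were amplified, then sequenced on MiSeq at 2 × 250 and filtered by CDR length. The clones had been stained with 10% biotinylated, detergent-solubilized Sf9 membrane reagent for 1 hour at 4 °C and sorted by FACS into low and high (top ~1%) gates on anti-HA and streptavidin fluorescence. Polyreactivity labels come from the gate of origin.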

Sequence	polyreactivity (PSR sort gate)
QVQLVESGGGLVQAGGSLRLSCAASGFIFDYYAMGWYRQAPGKERELVAAISGRGGSTYYADSVKGRFTISRDNAKNTVYLQMNSLKPEDTAVYYCAKGVERYTYGSYWYDYWGQGTQVTVSS	high polyreactivity
QLQLVESGGGLVQAGGSLRLSCAASRRIFSPNAMGWYRQAPGKESELVAAIRWNGGRTYYADSVKGRFTISRDTAKNTVYLQMNSLKPEDTAVYYCAATYFGPDYVRYDDWGQGTQVTVSS	high polyreactivity
QVQLVESGGGLVQAGGSLRLSCAASGSIFPAYAMGWYRQAPGKERELVAAITGSGGSTYYADSVKGRFTISRDNAKNTVYLQMNSLKPEDTAVYYCAATIRQYRRYDYWGQGTQVTVSS	low polyreactivity
QVQLVESGGGLVQAGGSLRLSCAASGRTFRYYAMGWYRQAPGKERELVAAISRGDSTHYADSVKGRFTISRDNAKNTVYLQMNSLKPEDTAVDYCAAYRGRSVDRQPYYCGQGTQVTVSS	high polyreactivity
PVQLVESGGGLVQAGGSLRLSCAASGFIFDSYPMGWYRQAPGKERELVAAISYSAGSTSYADSVKGRFTISRDNAKNTVYLQMKSLKPEDTAVYYCNARYYPLYSNSYDSWGQGTQVTVSS	low polyreactivity
QVQLVESGGGLVQAGGSLRLSCAASGSIFALYAMGWYRQAPGKERELVAAIDWSDGGTYYADSVKGRFTISRDNAKNTVYLQMNSLKPEDTAVYYCAADQYWDGYDFLYDYWGQGTQVTVSS	low polyreactivity
QVQLVESGGGLVQAGGSLRLSFAASGFIFPYYAMGWYRQAPGKERELVAAITSSGGSTYYADSVKGRFTISRDNAKNTVYLQMNSLKPEDTAVYYCNAYGRRTREYDYWGQGTQVTVSS	high polyreactivity
QDQLVESGGGLVQAGGSLRLSCAASGSTLDGNAMGWYRQAPGKERELVAGIDTGGSTYYADSVKGRFTISRDNAKNTVYLQMNSLKPEDTAVYYCAATDREDYDYWGQGTQVTVSS	low polyreactivity
QVQLVESGGGLVQAGGSLRLSCAASGSIFKINAMGWYRQAPGKERELVAAITRSGGSTYYADSVKGRFTISRDNAKNTVYLQMNSLKPEDTAVYYCNASTSRRTSLSSRFYYWGQGTQVTVSS	high polyreactivity
QVQLVESGGGLVQAGGSLRLSCAASGRTFTTNAMGWYRQAPGKERELVAAITSTTRTYYADSVKGRFTISRDNAKNTVYLQMNSLKPEDTAVYFCAARYPTPWGYYYWGQGTQVTVSS	high polyreactivity
QVQLVESGGGLVQAGGSLRLSCAASGGIFSGYAMGWYRQAPGKERELVAAISRRGGSTYYADSVKGRFTISRDNAKNTVYLQMNSLKPEDTAVYYFAKAYPYTCGQVTMYYWGQGTQVTVSS	high polyreactivity
QVQLVESGGGLVQAGGSLRLSCAASGFTFNRYAMGWYRQAPGKERELVAAISRSTATTYYADSVKGRFTISRDNAKNTVYLQMNSLKPEDTAVYYCNAPQRYWPPYGYWGQGTQVTVSS	high polyreactivity
QVQLQESGDGLVQAVGSLRLSCAASGYISGYYYMGWYRQAPGKERELVAGIDAFGSSTNYADCVKGRFTISRDNAKTTVYLPPNSPKPEDTAVYYCAAEYDDWDYHWYWGQGTQVTVSS	low polyreactivity
QVQLVESGGGLVQAGGSLRLSCASSGYTFIRYAIGLYRQAPGKERELVAAIRGTGTSTYYADSVKGRFTISRDNAKYTVYLQMNSLKTEDTAVYYCNKVAGRSPYTRYDYWGQGTHVTVSS	low polyreactivity
QVQLVESGGGLVKAGGSLRLSCAASGSILGAYNMGWYRQAPGKERELVSAITRRGGSTYYADSVKGRFTISRDNAKNTVYLQMNSLNPEDTAVYYCNAEYGFWYDYLVVPYDYWGQGTQVTVSS	low polyreactivity
QVQLVESGGGLVKAGGSLRLSCAASGSTFYSYVMGWYRQAPGKERELFAAISRRGGSTYYADSVKWRFTISSDNAKNTVYLQMNSLKPEDTAVYYCAASAPVAGYKYRYDYWGQGTQVTVSS	high polyreactivity
QVQLVESGGGLVQAGGSLRLSCAASGFTFGPNTMGWYRQAPGKERELVAAISARGGRTYYADSVKGRFTISRDNAKNTVYLQMNSLKPEDTAVYYCAAPGYVRTGVTYGGYYWGQGTQVTVSS	high polyreactivity
QVKLVESGGGLVQAGGSLRLSCAASGRTLGGYAMRWYRQAPGKERQLVAAITRRGGSRYYADTVKGRFTISRDNAKNTVYLQMNSLKPEDSAVYYCAARWYARSLTRFNYWGKGTQVTVSS	high polyreactivity
QVQLVESGGGLVQAGGSLRLRCAASGRIFDYYAMGWYRPAPGNERELVAALSSSVGNTYYADSVKGRFTISRDNAKNTVYLQMNSLKPEDTAVYYCADNYYVRSSYEVEYDYWGQGTQVTVSS	low polyreactivity
QVQLVESGGGLVQAGGSLRLSCAASGSIFSIYAMGWYRQAPGKERELVAAITWGGGSTYYADSVKGRFTISRDNAKNTVNLQMNSLKPEDTAVYYCAADSLTWFGTYYYWGQGTQVTVSS	high polyreactivity
QVQLVESGGGLVQAGGSLRLSCAASGLIFLYYVMAWYRQAPGKERELVAGISRSGGRTNYADSVKGRFTISRDNAKNTVYLQMNSLKPEDTAVYYCAALLSIGQPKPTWYYYWGQGTQVTVSS	high polyreactivity
QVQLVESGGGLVQAGGSLRLSCDSSGSIFYYYAMGWYRQAPGKERELVAAISRRGGSTYYADSVKVRFTISRDNAKNTVYLQMNSLKPVDTAVYYCAADSPRGYDYWGQCTQVTVSS	high polyreactivity
QVQLVESGGGLDQAGGSLRLSCAASGSTSLSYAMGWYRQAPGKERELVAAISRGGSTTYADSVKGRFTISRDNAKNPVYFQMKSLKPVDTAVYYCAVGYDIVRYSYSPFYRYDYWGQGTQVTVSS	low polyreactivity
QVQLVESGGGLVQAGGSLRLSCAASGRTFYSYAMGWYRPAPGQERELVARITWSGGTYYADSVKGRFTISRDNAKTTVYLQMNSLKPEDTAVYYCNKYRPYGRIYHLAYGRDYWGQGTQVTVSS	high polyreactivity
QVQLVESGGGLVQAGGSLLLSCAASGFTFWSYAMAWYRQAPRKERELVADISWSGGSTHYADSVKGRFTISRDNAKNTVYLQMNSLKPEDTAVYYCARRFLYPYDHWGQGTQVTVSS	high polyreactivity
QVQLVESGGGLVQAGGSLRLSCAASGSIFNYNAMGWYRHAPGKERELFAAITYHGGSTYYADSVKGRFTISRDNAKYTVYLQMNSLKPEDTAVYYCNALRGYRPGWFDYWGQGTQVTVSS	high polyreactivity
QVQLVESGGGLVQAGGSLRLSCAASGSTFRIYAMGWYRQAPGKERELVARISWNGGRTYYADSVKGRFTISRDNAKNTVYLQMNSLKTEDTAVYYCNALVPPGYDYWGQGTQVTVSS	high polyreactivity
QVQLVDSGGGLVQAGGSLRLSCAASGIIFSDYAMGWYRKAPGIERELVAAISRNGGSTYYADSVKGRFTISRDIAKYTVYLQMNSLKPEDTAVYYCAATRRYRYNWGQGTQVTVSS	high polyreactivity
QVQLVESGGGLVQAGGSLRLSCAASGRIFVRNAMGWYRQAPGKERELVATITSIGGRTYYADSVKGRFTISRDNAKNTVYLQMNSLKPEDTAVYYCAAYNTQSYPAYLRYDYWGQGTQVTVSS	low polyreactivity
QVQHVESGGGLVQAGGSLRLSCAASGGTFSYNTMGWSRQAPGKERELVAVITFSGGSTYYADSVKGRFTISRDNAKNTVYLQMNSLKPEDTAVYYCNARSYPRWLRYDYWGQGTQVTVSS	low polyreactivity
